Results as given in publication PMC5263234, “Dynamin-2 Stabilizes the HIV-1 Fusion Pore with a Low Oligomeric State” (Cell Reports, 2017).
“And” between values parts separate entries of the source, which are not always exact repeats. Identical values can stand only once.

Columns and labels:
[1] = biological target: the molecule itself; assay: number and brightness analysis with TIRF microscopy
[2] = biological target: the molecule itself; assay: number and brightness analysis with TIRF microscopy; live TZM-bl cells expressing Dynamin-mCherry, exposed to HIV(JRFL) at MOI 10; 100 frames at 50 ms per frame; brightness calibrated against mCherry alone

B1: dynamin-2 (natural protein, UniProt P50570 1-870, looked up)
chain: MGNRGMEELIPLVNKLQDAFSSIGQSCHLDLPQIAVVGGQSAGKSSVLENFVGRDFLPRGSGIVTRRPLILQLIFSKTEHAEFLHCKSKKFTDFDEVRQEIEAETDRVTGTNKGISPVPINLRVYSPHVLNLTLIDLPGITKVPVGDQPPDIEYQIKDMILQFISRESSLILAVTPANMDLANSDALKLAKEVDPQGLRTIGVITKLDLMDEGTDARDVLENKLLPLRRGYIGVVNRSQKDIEGKKDIRAALAAERKFFLSHPAYRHMADRMGTPHLQKTLNQQLTNHIRESLPALRSKLQSQLLSLEKEVEEYKNFRPDDPTRKTKALLQMVQQFGVDFEKRIEGSGDQVDTLELSGGARINRIFHERFPFELVKMEFDEKDLRREISYAIKNIHGVRTGLFTPDLAFEAIVKKQVVKLKEPCLKCVDLVIQELINTVRQCTSKLSSYPRLREETERIVTTYIREREGRTKDQILLLIDIEQSYINTNHEDFIGFANAQQRSTQLNKKRAIPNQGEILVIRRGWLTINNISLMKGGSKEYWFVLTAESLSWYKDEEEKEKKYMLPLDNLKIRDVEKGFMSNKHVFAIFNTEQRNVYKDLRQIELACDSQEDVDSWKASFLRAGVYPEKDQAENEDGAQENTFSMDPQLERQVETIRNLVDSYVAIINKSIRDLMPKTIMHLMINNTKAFIHHELLAYLYSSADQSSLMEESADQAQRRDDMLRMYHALKEALNIIGDISTSTVSTPVPPPVDDTWLQSASSHSPTPQRRPVSSIHPPGRPPAVRGPTPGPPLIPVPVGAAASFSAPPIPSRPGPQSVFANSDLFPAPPQIPSRPVRIPPGIPPGVPSRRPPAAPSRPTIIRPAEPSLLD
notes: dynamin-2 (DNM2), large GTPase; Each copy carries ONE fluorescent protein; FRET-FLIM used an EGFP-tagged copy together with an mCherry-tagged copy; number and brightness used the mCherry-tagged copy alone; The Addgene dynamin-2 plasmids may encode the rat protein (surmise); also called DNM2; Dyn-GFP; source: TZM-bl cells, transfected (plasmids obtained from Addgene), in live cells
stoichiometry N [1]: 8 and 6 | stoichiometry N [2]: 4
